B1: P1AE0400, humanized anti-CD40 antibody VH2a/VL2a, huIgG1_LALA_PG (antibody, V domains shown)
VH: EVQLLESGGGLVQPGGSLRLSCAASGYSFTGYYIHWVRQAPGKGLEWVGRVIPNAGGTSYNQKFKGRFTISVDNSKNTAYLQMNSLRAEDTAVYYCAREGIYWWGQGTTVTVSS
VL: DIQMTQSPSSLSASVGDRVTITCRSSQSLVHSNGNTFLHWYQQKPGKAPKLLIYTVSNRFSGVPSRFSGSGSGTDFTLTISSLQPEDFATYFCSQTTHVPWTFGGGTKVEIKR
notes: also called VL2a/VH2a
B2: P1AE0403, humanized anti-CD40 antibody VH2d/VL2a, huIgG1_LALA_PG (antibody, V domains shown)
VH: EVQLLESGGGLVQPGGSLRLSCAASGYSFTGYYIHWVRQAPGKGLEWVGRVIPNAGGTSYGDSVKGRFTISVDNSKNTAYLQMNSLRAEDTAVYYCAREGIYWWGQGTTVTVSS
VL: DIQMTQSPSSLSASVGDRVTITCRSSQSLVHSNGNTFLHWYQQKPGKAPKLLIYTVSNRFSGVPSRFSGSGSGTDFTLTISSLQPEDFATYFCSQTTHVPWTFGGGTKVEIKR
notes: also called VL2a/VH2d
B3: P1AE0404, humanized anti-CD40 antibody VH2a/VL2b, huIgG1_LALA_PG (antibody, V domains shown)
VH: EVQLLESGGGLVQPGGSLRLSCAASGYSFTGYYIHWVRQAPGKGLEWVGRVIPNAGGTSYNQKFKGRFTISVDNSKNTAYLQMNSLRAEDTAVYYCAREGIYWWGQGTTVTVSS
VL: DIQMTQSPSSLSASVGDRVTITCRSSQSLVHSNGNTFLHWYQQKPGQSPKLLIYTVSNRFSGVPSRFSGSGSGTDFTLTISSLQPEDFATYFCSQTTHVPWTFGGGTKVEIK
notes: huIgG1 with effector silent Fc (P329G, L234A, L235A); also called VL2b/VH2a
B4: P1AE0401, humanized anti-CD40 antibody VH2b/VL2a, huIgG1_LALA_PG (antibody, V domains shown)
VH: EVQLLESGGGLVQPGGSLRLSCAASGYSFTGYYIHWVRQAPGKSLEWVGRVIPNAGGTSYNQKFKGRFTISVDNSKNTAYLQMNSLRAEDTAVYYCAREGIYWWGQGTTVTVSS
VL: DIQMTQSPSSLSASVGDRVTITCRSSQSLVHSNGNTFLHWYQQKPGKAPKLLIYTVSNRFSGVPSRFSGSGSGTDFTLTISSLQPEDFATYFCSQTTHVPWTFGGGTKVEIK
notes: huIgG1 with effector silent Fc (P329G, L234A, L235A); also called VL2a/VH2b
B5: P1AE0402, humanized anti-CD40 antibody VH2c/VL2a, huIgG1_LALA_PG (antibody, V domains shown)
VH: EVQLLESGGGLVQPGGSLRLSCAASGYSFTGYYIHWVRQAPGKGLEWVGRVIPNAGGTSYNQKFKGRFTISVDNSKNTAYLQMNSLRAEDTAVYYCAREGIYWWGHGTTVTVSS
VL: DIQMTQSPSSLSASVGDRVTITCRSSQSLVHSNGNTFLHWYQQKPGKAPKLLIYTVSNRFSGVPSRFSGSGSGTDFTLTISSLQPEDFATYFCSQTTHVPWTFGGGTKVEIK
notes: huIgG1 with effector silent Fc (P329G, L234A, L235A); also called VL2a/VH2c
B6: P1AE0405, humanized anti-CD40 antibody VH2b/VL2b, huIgG1_LALA_PG (antibody, V domains shown)
VH: EVQLLESGGGLVQPGGSLRLSCAASGYSFTGYYIHWVRQAPGKSLEWVGRVIPNAGGTSYNQKFKGRFTISVDNSKNTAYLQMNSLRAEDTAVYYCAREGIYWWGQGTTVTVSS
VL: DIQMTQSPSSLSASVGDRVTITCRSSQSLVHSNGNTFLHWYQQKPGQSPKLLIYTVSNRFSGVPSRFSGSGSGTDFTLTISSLQPEDFATYFCSQTTHVPWTFGGGTKVEIK
notes: huIgG1 with effector silent Fc (P329G, L234A, L235A); also called VL2b/VH2b
B7: P1AE0406, humanized anti-CD40 antibody VH2c/VL2b, huIgG1_LALA_PG (antibody, V domains shown)
VH: EVQLLESGGGLVQPGGSLRLSCAASGYSFTGYYIHWVRQAPGKGLEWVGRVIPNAGGTSYNQKFKGRFTISVDNSKNTAYLQMNSLRAEDTAVYYCAREGIYWWGHGTTVTVSS
VL: DIQMTQSPSSLSASVGDRVTITCRSSQSLVHSNGNTFLHWYQQKPGQSPKLLIYTVSNRFSGVPSRFSGSGSGTDFTLTISSLQPEDFATYFCSQTTHVPWTFGGGTKVEIK
notes: huIgG1 with effector silent Fc (P329G, L234A, L235A); also called VL2b/VH2c
B8: P1AE0407, humanized anti-CD40 antibody VH2d/VL2b, huIgG1_LALA_PG (antibody, V domains shown)
VH: EVQLLESGGGLVQPGGSLRLSCAASGYSFTGYYIHWVRQAPGKGLEWVGRVIPNAGGTSYGDSVKGRFTISVDNSKNTAYLQMNSLRAEDTAVYYCAREGIYWWGQGTTVTVSS
VL: DIQMTQSPSSLSASVGDRVTITCRSSQSLVHSNGNTFLHWYQQKPGQSPKLLIYTVSNRFSGVPSRFSGSGSGTDFTLTISSLQPEDFATYFCSQTTHVPWTFGGGTKVEIK
notes: huIgG1 with effector silent Fc (P329G, L234A, L235A); also called VL2b/VH2d
B9: P1AE0817, humanized anti-CD40 antibody VH1a/VL1a, huIgG1_LALA_PG (antibody, V domains shown)
VH: QVQLVQSGAEVKKPGASVKVSCKASGYSFTGYYIHWVRQAPGQSLEWMGRVIPNAGGTSYNQKFKGRVTLTVDKSISTAYMELSRLRSDDTAVYYCAREGIYWWGQGTTVTVSS
VL: DIVMTQTPLSLSVTPGQPASISCRSSQSLVHSNGNTFLHWYLQKPGQSPQLLIYTVSNRFSGVPDRFSGSGSGTDFTLKISRVEAEDVGVYFCSQTTHVPWTFGGGTKVEIKR

How the values were obtained:
[1] = molecular target: T1, human CD40 expressed on cells (human, UniProt P25942 21-277); experiment: flow cytometry, Raji cells;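 further: cell binding of antibodies to Raji cells detected by flow cytometry using an Alexa488-labelled anti-human IgG secondary antibody, primary incubation 1 h at 4 °C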
T1 construct: also called huCD40; Raji cells
Description: CD40 positive cells (Raji cells) were detatched from the culture bottle using Trypsin and were counted using a Casy cell counter. After pelleting at 4° C., the cells were resuspended in FACS Buffer (2.5% FCS in PBS), adjusted to 2.0E+06 cells/mL, and dispensed to 96-well PP V-bottom-plates (25 μL/well=5.0E+04Zellen/well).
The CD40 specific antibodies were adjusted to 20 μg/mL in FACS buffer, resulting in a final concentration of 10 μg/mL. 20 μl were added to 25 μl cell suspension and incubated for 1 h at 4° C. The cells were then washed twice in FACS buffer. After washing, the cells were resuspended in 50 μL FACS-buffer containing secondary antibody (<huIgG>-Alexa488, c=10 μg/mL) and incubated 1 h bei 4° C. The cells were then washed twice in FACS buffer and resuspended in 70 μl/well FACS buffer for measurement using a FACS Canto (BD, Pharmingen).

[2] = molecular target: T2, human CD40 extracellular domain with C-terminal His-AviTag (human, UniProt P25942 21-193); experiment: SPR, antibody captured, CD40 ECD analyte;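 further: biacore SPR at 25 °C in PBS-T pH 7.4, CD40 ECD analyte from 300 nM in 1:3 series, 300 s association, up to 1200 s dissociation, double-referenced, Langmuir 1:1 fit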
T2 construct: not shown: C-terminal His-AviTag

| Binder | EC50 [1] [µg/mL] | Kd [2] [nM] | koff [2] [s⁻¹] | kon [2] [M⁻¹ s⁻¹] |
| --- | --- | --- | --- | --- |
| B1 | 0.12 | 4.2 | 0.00699 | 1.68e+06 |
| B2 | 0.12 | 29 | 0.0407 | 1.4e+06 |
| B3 | 0.11 | 4.2 | 0.00693 | 1.63e+06 |
| B4 | 0.13 | 4.6 | 0.00787 | 1.69e+06 |
| B5 | 0.13 | 4.2 | 0.00709 | 1.67e+06 |
| B6 | 0.09 | 5.1 | 0.00814 | 1.61e+06 |
| B7 | 0.09 | 4.2 | 0.00709 | 1.67e+06 |
| B8 | 0.12 | 30 | 0.0355 | 1.19e+06 |
| B9 | 0.09 | 2.5 | 0.00593 | 2.4e+06 |

Source: patent publication US20250320305A1 (Hoffmann-La Roche, published 2025)
